Assay [1] addresses Flag-gp130-RTp51 fusion protein (encoded by pMG2-RTp51) (human; HIV1) (UniProt P40189). Put plainly: cell-based or functional assay.
Assay [2] deals with T1, HA-Tyk2(C)-p53(N) fusion protein (encoded by pMet7-HA-Tyk2(C)-p53(N)) (human, UniProt P04637 2-72).
T1 construct: range 2-72; Expressed in HEK293-T cells; not shown: HA tag
Put plainly: kinase-substrate sensor assay, rPAPI-luciferase reporter in HEK293-T cells. A general note: Reporter assays use an easily measured gene product as a stand-in for the process of interest.

Take “HA-Tyk2(R1027A)-RTp66 fusion protein (encoded by pMet7-HA-Tyk2(R1027A)-RTp66)”: in assay [1], the imidazole-dependent induction of the luciferase signal came out at 36 fold.

B1: unfused gp130 receptor fragment (encoded by pMG1) (other, human, UniProt P40189 760-918, looked up)
chain: STVVHSGYRHQVPSVQVFSRSESTQPLLDSEERPEDLQLVDHVDGGDGILPRQQYFKQNCSQHESSPDISHFERSKQVSSVNEEDFVRLKQQISDHISQSCGSGQMKMFQEVSAADAFGPGTEGQVERFETVGMEAATDEGMPKSYLPQTVRQGGYMPQ
notes: Background control, expressed in HEK293-T cells; also called unfused gp130 fragment
For the molecule B1, the binding result in assay [2] is listed as “no binding”.

Source of the values: patent publication US20190177705A1 (UNIVERSITEIT GENT, published 2019).
